From US20080108569

B1: GST-tagged PP2C domain of PHLPP2 (protein)
chain: TSTFWSHGLAEMAGQRNKLCVSALAMDSFAEGVGAVYGMFDGDRNEELPRLLQCTMADVLLEEVQQSTNDTVFMANTFLVSHRKLGMAGQKLGSSALLCYIRPDTADPASSFSLTVANVGTCQAVLCRGGKPVPLSKVFSLEQDPEEAQRVKDQKAIITEDNKVNGVTCCTRMLGCTYLYPWILPKPHISSTPLTIQDELLILGNKALWEHLSYTEAVNAVRHVQDPLAAAKKLCTLAQSYGCQDNVGAMV
B2: HA-tagged full length PHLPP2 (protein)
chain: MGYPYDVPDYAMKRNGSRNCLNRRSRFGSRERDWLREDVKRGCVYLYGADTTTATTTTTTSSSSSSSSSSSDLHLVLCTVETPASEICAGEGRESLYLQLHGDLVRRLEPTERPLQIVYDYLSRLGFDDPVRIQEEATNPDLGCMIRFYGEKPCHMDRLDRILLSGIYNVRKGKTQLHKWAERLVVLCGTCLIVSSVKDCQTGKMHILPLVGGKIEEVKRRQYSLAFSSAGAQAQTYHVSFETLAEYQRWQRQASKVVSQRISTVDLSCYSLEEVPEHLFYSQDITYLNLRHNFMQLERPGGLDTLYKFSQLKGLNLSHNKLGLFPILLCEISTLTELNLSCNGFHDLPSQIGNLLNLQTLCLDGNFLTTLPEELGNLQQLSSLGISFNNFSQIPEVYEKLTMLDRVVMAGNCLEVLNLGVLNRMNHIKHVDLRMNHLKTMVIENLEGNKHITHVDLRDNRLTDLDLSSLCSLEQLHCGRNQLRELTLSGFSLRTLYASSNRLTAVNVYPVPSLLTFLDLSRNLLECVPDWACEAKKIEVLDVSYNLLTEVPVRILSSLSLRKLMLGHNHVQNLPTLVEHIPLEVLDLQHNALTRLPDTLFSKALNLRYLNASANSLESLPSACTGEESLSMLQLLYLTNNLLTDQCIPVLVGHLHLRILHLANNQLQTFPASKLNKLEQLEELNLSGNKLKTIPTTIANCKRLHTLVAHSNNISIFPEILQLPQIQFVDLSCNDLTEILIPEALPATLQDLDLTGNTNLVLEHKTLDIFSHITTLKIDQKPLPTTDSTVTSTFWSHGLAEMAGQRNKLCVSALAMDSFAEGVGAVYGMFDGDRNEELPRLLQCTMADVLLEEVQQSTNDTVFMANTFLVSHRKLGMAGQKLGSSALLCYIRPDTADPASSFSLTVANVGTCQAVLCRGGKPVPLSKVFSLEQDPEEAQRVKDQKAIITEDNKVNGVTCCTRMLGCTYLYPWILPKPHISSTPLTIQDELLILGNKALWEHLSYTEAVNAVRHVQDPLAAAKKLCTLAQSYGCQDNVGAMVVYLNIGEEGCTCEMNGLTLPGPVGFASTTTIKDAPKPATPSSSSGIASEFSSEMSTSEVSSEVGSTASDEHNAGGLDTALLPRPERRCSLHPTPTSGLFQRQPSSATFSSNQSDNGLDSDDDQPVEGVITNGSKVEVEVDIHCCRGRDLENSPPLIESSPTLCSEEHARGSCFGIRRQNSVNSGMLLPMSKDRMELQKSPSTSCLYGKKLSNGSIVPLEDSLNLIEVATEVPKRKTGYFAAPTQMEPEDQFVVPHDLEEEVKEQMKQHQDSRLEPEPHEEDRTEPPEEFDTAL

Target: 6His-tagged human Akt1, P31749
Sequence (P31749 whole entry, looked up): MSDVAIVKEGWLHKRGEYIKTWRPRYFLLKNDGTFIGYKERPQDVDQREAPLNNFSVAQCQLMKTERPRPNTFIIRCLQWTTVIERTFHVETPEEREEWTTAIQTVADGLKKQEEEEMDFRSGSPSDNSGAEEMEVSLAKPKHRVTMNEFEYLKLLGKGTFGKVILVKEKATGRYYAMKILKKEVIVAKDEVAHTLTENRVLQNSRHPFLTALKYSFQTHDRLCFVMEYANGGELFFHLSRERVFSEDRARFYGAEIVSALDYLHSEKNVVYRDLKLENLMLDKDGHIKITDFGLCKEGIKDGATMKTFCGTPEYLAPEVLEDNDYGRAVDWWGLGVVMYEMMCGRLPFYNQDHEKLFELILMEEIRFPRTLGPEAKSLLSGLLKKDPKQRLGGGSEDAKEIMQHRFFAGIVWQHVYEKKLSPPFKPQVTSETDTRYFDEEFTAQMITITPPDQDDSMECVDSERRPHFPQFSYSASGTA

Protein	dephosphorylation of Ser 473 in 5 minutes (phospho-specific antibody)	dephosphorylation of Thr 308 in 5 minutes (phospho-specific antibody)	dephosphorylation of Ser 473 by immunoprecipitated enzyme	dephosphorylation of Thr 308 by immunoprecipitated enzyme
B1	82+6% (Ser 473)	70+2% (Thr 308)	–	–
B2	–	–	60+4% dephosphorylation of Ser 473	no significant effect on Thr 308 phosphorylation
